Data published in patent US20190015473A1 (MIT, published 2019).

Target: T1, Sin3A, endogenous in Neuro2A cells (UniProt Q60520 1-1274, limits assumed)
T1 sequence (looked up): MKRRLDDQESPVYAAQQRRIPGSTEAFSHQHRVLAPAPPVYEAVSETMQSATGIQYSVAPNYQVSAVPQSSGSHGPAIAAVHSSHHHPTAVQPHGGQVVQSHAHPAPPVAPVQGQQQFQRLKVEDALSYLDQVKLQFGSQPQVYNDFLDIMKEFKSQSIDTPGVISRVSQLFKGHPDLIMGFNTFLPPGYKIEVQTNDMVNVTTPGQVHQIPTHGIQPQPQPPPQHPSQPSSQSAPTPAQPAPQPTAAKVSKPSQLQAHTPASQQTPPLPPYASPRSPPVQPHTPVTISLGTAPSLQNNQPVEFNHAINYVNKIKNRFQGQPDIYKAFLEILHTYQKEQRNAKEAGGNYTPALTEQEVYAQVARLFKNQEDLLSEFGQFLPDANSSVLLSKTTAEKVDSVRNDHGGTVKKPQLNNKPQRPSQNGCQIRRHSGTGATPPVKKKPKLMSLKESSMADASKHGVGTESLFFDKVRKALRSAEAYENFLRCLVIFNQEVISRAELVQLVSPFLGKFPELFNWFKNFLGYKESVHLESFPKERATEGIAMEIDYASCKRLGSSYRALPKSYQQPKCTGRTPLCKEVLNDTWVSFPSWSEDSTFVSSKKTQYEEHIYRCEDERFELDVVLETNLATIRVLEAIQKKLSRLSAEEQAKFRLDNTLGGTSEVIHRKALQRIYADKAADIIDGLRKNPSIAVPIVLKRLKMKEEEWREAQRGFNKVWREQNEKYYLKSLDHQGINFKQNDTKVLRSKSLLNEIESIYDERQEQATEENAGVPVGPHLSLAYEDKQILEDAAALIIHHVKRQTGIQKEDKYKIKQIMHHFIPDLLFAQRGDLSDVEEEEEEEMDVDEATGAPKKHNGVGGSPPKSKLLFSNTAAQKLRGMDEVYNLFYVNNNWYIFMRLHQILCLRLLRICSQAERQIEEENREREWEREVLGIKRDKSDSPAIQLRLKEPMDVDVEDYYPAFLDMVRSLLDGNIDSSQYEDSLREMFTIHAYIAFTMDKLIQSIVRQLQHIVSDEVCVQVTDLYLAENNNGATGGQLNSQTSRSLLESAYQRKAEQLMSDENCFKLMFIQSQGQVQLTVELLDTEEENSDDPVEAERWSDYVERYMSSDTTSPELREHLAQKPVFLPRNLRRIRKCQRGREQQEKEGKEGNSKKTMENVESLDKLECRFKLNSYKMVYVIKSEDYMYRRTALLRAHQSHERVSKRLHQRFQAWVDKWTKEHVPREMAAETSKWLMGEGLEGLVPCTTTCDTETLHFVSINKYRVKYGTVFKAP
Assay: co-immunoprecipitation (anti-Flag) from transfected N2A cells, western blot
Protocol: Brain tissues or cell pellets were lysed in 50 mM Tris-HCl (pH8.0), 150 mM NaCl, 1 mM EDTA, 1% NP-40, and complete protease inhibitor cocktail (Roche) with 20 strokes using the Dounce tight homogenizer. After centrifugation at 10000×g twice for 10 min, supernatants were subjected to co-immunoprecipitation or western blot analysis (Bio-rad). Two micrograms of anti-HDAC2 antibody (ab12169) or 15 μL of anti-Flag M2 affinity gels (Sigma) were used for immunoprecipitations. The antibodies used for immunoblotting were anti-HDAC2 (1 μg/mL, ab12169), anti-Sp3 (1 μg/mL, sc-644 X), anti-Sin3A (1 μg/mL, Abcam; ab3479), and […] (1:500, Sigma; F2043).
If the divergent C-terminus of HDAC2 alone is capable of binding to Sp3, the HDAC2-Sp3 interaction may potentially be inhibited through over-expression of this domain. To test this, the C-terminal domain of either HDAC2 (termed 2C) or HDAC1 (termed 1C) fused with mCherry, or mCherry alone, was transfected into neuronal N2A cells. Using co-IP experiments it was shown that 2C, but not 1C or mCherry alone, robustly bound to endogenous Sp3 (FIG. 6A). Importantly, binding of 2C to Sin3A, a well characterized partner of the HDAC1/2 complexes that controls cell cycle progression, was not detected.

B1: C-terminal domain of HDAC2 (termed 2C) fused with mCherry, flag-tagged (other, UniProt Q92769 390-488, looked up)
chain: VHEDSGDEDGEDPDKRISIRASDKRIACDEEFSDSEDEGEGGRRNVADHKKGAKKARIEEDKKETEDKKTDVKEEDKSKDNSGEKTDTKGTKSEQLSNP
notes: The part order follows the printed name 'mCherry-2C'; the Flag position is unknown; also called mCherry-2C; HDAC2 C-terminal fragment (2C); not shown: Flag tag; mCherry (engineered red fluorescent protein)
  binding result: no binding
